Binding affinity and Binding affinity (RU) data for 72 molecules are collected here from patent US20250011363A1, “OPTIMIZED SHORTENED PEPTIDE THAT BINDS TO ACETYLCHOLINE RECEPTOR, AND USE THEREOF” (SKINMED CO., LTD., priority 2021, published 2025).

This assay deals with acetylcholine receptor. Put plainly: SPR, receptor immobilized, peptide 10 uM.

Take KWVSRR [6mer-2-184]: the Binding affinity worked out at 136 RU.
As for RRVYRR [6mer-2-179], the Binding affinity was found to be 121 RU.
As to RVFLKR [6mer-2-168], the Binding affinity is 135 RU.
The molecule KAMKRK [6mer-2-811] returned a Binding affinity (RU) of 16 RU.
In the case of KHAKKK [6mer-2-810], the Binding affinity (RU) was found to be 18 RU.
Same read-out and setting: as for KCSAKK [6mer-2-799], the figure is 13 RU.
On to RGVQRK [6mer-2-200], for which the Binding affinity came out at 121 RU.
KSQRKK [6mer-2-196] displayed a Binding affinity of 121 RU.
Regarding RVRRKK [6mer-2-160], the Binding affinity amounted to 121 RU.
In turn, RKMGKR [6mer-2-816] gave a Binding affinity (RU) of 15 RU.
Regarding KIWNRK [6mer-2-807], the Binding affinity (RU) is 28 RU.
Molecule RGQYKR [6mer-2-199] gave a Binding affinity of 137 RU.
Same read-out and setting: the figure for RGQYRR [6mer-2-197] is 126 RU; for KSRQKR [6mer-2-195] it is 154 RU.
KLLRKR [6mer-2-174] came in with a Binding affinity of 142 RU.
As to RNCGKR [6mer-2-804], the Binding affinity (RU) came to 21 RU.
RWFSKK [6mer-2-192] showed a Binding affinity of 133 RU.
On to KVYLRK [6mer-2-175], for which the Binding affinity was found to be 137 RU.
Same read-out and setting: the figure for RWLRKR [6mer-2-166] is 125 RU.
As for KRQRRK [6mer-2-164], the Binding affinity was 135 RU.
On to RSYRKK [6mer-2-157], for which the Binding affinity is 153 RU.
The molecule KWFTRR [6mer-2-165] yielded a Binding affinity of 139 RU.
Take RYMERK [6mer-2-814]: the Binding affinity (RU) stood at 28 RU.
Take RLRLKR [6mer-2-180]: the Binding affinity came to 142 RU.
Take RQQCKK [6mer-2-173]: the Binding affinity is 127 RU.
For KGVYKK [6mer-2-155], the Binding affinity came out at 139 RU.
Regarding KRQSRR [6mer-2-169], the Binding affinity turned out to be 123 RU.
KQICRK [6mer-2-186]: the Binding affinity was 127 RU.
In the case of RGYTKR [6mer-2-188], the Binding affinity came out at 142 RU.
On the same count and under the same terms, as for KRILKR [6mer-2-150], the figure is 136 RU; as for KGLQRR [6mer-2-156], 127 RU; as for KGQQRK [6mer-2-149], 127 RU.
Still for that read-out and setting: the figure for RGYQKR [6mer-2-185] is 137 RU; for KQLRKR [6mer-2-151] it is 142 RU.
In turn, RTAWKK [6mer-2-800] returned a Binding affinity (RU) of 11 RU.
In turn, REPWRR [6mer-2-809] came in with a Binding affinity (RU) of 18 RU.
In the case of KETKRR [6mer-2-802], the Binding affinity (RU) came out at 24 RU.
With RQYYRK [6mer-2-159], the Binding affinity was found to be 127 RU.
RQFYKR [6mer-2-152]: the Binding affinity was 139 RU.
The molecule KVISKR [6mer-2-162] gave a Binding affinity of 136 RU.
RWQQKK [6mer-2-181] showed a Binding affinity of 139 RU.
For the molecule KLRLRK [6mer-2-194], the Binding affinity turned out to be 154 RU.
Consider KKMDRR [6mer-2-813], for which the Binding affinity (RU) stood at 29 RU.
Turning to KWLLRR [6mer-2-178], the Binding affinity was 133 RU.
In turn, KGQYKK [6mer-2-148] gave a Binding affinity of 145 RU.
As for KWYYRK [6mer-2-198], the Binding affinity was determined as 139 RU.
For the molecule KHCVRK [6mer-2-806], the Binding affinity (RU) was found to be 30 RU.
Regarding RPNIRK [6mer-2-801], the Binding affinity (RU) worked out at 24 RU.
KWRRKK [6mer-2-161]: the Binding affinity turned out to be 154 RU.
KRRRRK [6mer-2-187]: the Binding affinity was determined as 145 RU.
In turn, KLFQKR [6mer-2-167] showed a Binding affinity of 145 RU.
KLFYKK [6mer-2-182] showed a Binding affinity of 139 RU.
As to KWISKR [6mer-2-193], the Binding affinity amounted to 127 RU.
As to KICGRK [6mer-2-815], the Binding affinity (RU) stood at 30 RU.
In turn, KVYLKR [6mer-2-190] had a Binding affinity of 148 RU.
As to RLQLRR [6mer-2-183], the Binding affinity is 154 RU.
On to RSFLRR [6mer-2-158], for which the Binding affinity came out at 145 RU.
For RQQTRR [6mer-2-171], the Binding affinity is 139 RU.
As for RWIYRR [6mer-2-176], the Binding affinity was 144 RU.
On to KLFLRR [6mer-2-201], for which the Binding affinity stood at 148 RU.
KPPEKR [6mer-2-812] showed a Binding affinity (RU) of 33 RU.
KVIRKK [6mer-2-172]: the Binding affinity turned out to be 128 RU.
Take KWFYRR [6mer-2-163]: the Binding affinity came out at 149 RU.
In the case of RWQCKK [6mer-2-189], the Binding affinity was found to be 121 RU.
RVYSRR [6mer-2-153] had a Binding affinity of 124 RU.
Consider RNKERK [6mer-2-803], for which the Binding affinity (RU) is 18 RU.
In turn, RQYQKK [6mer-2-170] displayed a Binding affinity of 128 RU.
KRVTKR [6mer-2-154] returned a Binding affinity of 148 RU.
RSVTKK [6mer-2-177]: the Binding affinity was determined as 136 RU.
As for RQLLKR [6mer-2-191], the Binding affinity came to 154 RU.
The molecule RDTMKK [6mer-2-805] gave a Binding affinity (RU) of 12 RU.
RKKFKK [6mer-2-808]: the Binding affinity (RU) is 21 RU.
